PMC7940618, “Specific inhibition of the Survivin–CRM1 interaction by peptide-modified molecular tweezers” (Nature Communications, 2021)
Peptide text beside a SMILES is read from it.

Key:
[1] = target: T1, Survivin120 K90/103T (Homo sapiens, UniProt O15392, K103T/K90T); experiment: ITC titration of tweezers with Survivin120 K90/103T mutant; format: binding
T1 construct: the only published NMR structure originated from a truncated Survivin (aa 1-120) with improved solubility; GST with PreScission site (N); made in house; host or cells: Escherichia coli soluBL21
From the text: If the tweezer-based inhibitors indeed bind to lysines/arginines flanking the NES (K90, K91, K103, R106), their mutation to, e.g., threonine, should abolish the observed effects. For this reason, we generated double and triple Survivin120 mutants lacking these putative tweezer anchor points. Unfortunately, most double mutants and especially the triple mutants were unfolded as evidenced by 1D ^1H NMR (SI6); finally, the correctly folded double threonine mutant Survivin120 K90/103T was chosen for further investigation. […] Next, binding of FAM-labeled tweezers (SI3) to either Survivin120 wildtype or the K90/103T mutant was studied by fluorescence anisotropy (Fig. 7d–f). […] We conclude that lysines 90 and 103 are indeed essential for efficient tweezer binding.
(§1) ITC was performed with a MicroCal iTC200 from Malvern Panalytical in PBS, pH 7.4 at 25 °C with molecular tweezers in the cell and Survivin120 in the titration syringe. The protein was dialyzed overnight at 4 °C against the PBS buffer. Ligands were dissolved in the respective dialysis buffer. Then, 300 µM TW were titrated with 300 µM Survivin120 WT or 321 µM Survivin120 K90/103T. Then, 100 µM TW-ELTL, TW-ELTLGEFL, or TW-LFEEGLLT was titrated with 1.2 mM Survivin120 WT or 2.5 mM Survivin120 K90/103T. For reverse titrations, either 33.3 or 34.4 µM Survivin120 in the cell was titrated with 5 mM TW or TW-ELTL in the syringe, respectively. All titrations were performed in PBS, pH 7.4 at 25 °C. Then, 1.5 μL injections were used with 120 s spacing time between injections. The injection rate was set to 0.5 µL/s and the reference power was 5 µcal/s. ITC thermograms were fitted to a one set of sites model with the software Origin (v7.0552) provided with the instrument. Heat of dilution was subtracted as constant from each data point.
(§2) ITC thermograms were fitted to a one set of sites model with the software Origin provided with the instrument. Heat of dilution was subtracted as constant from each data point. From three independent experiments (n = 3), one representative example was depicted, and thermodynamic data were derived thereof. For pull-down experiments, only the representative quantification of the depicted western blot is shown. […] Fluorescence anisotropy graphs were generated with GraphPad Prism 5.0. Depicted error bars represent the standard deviation of three independent titrations.

[2] = target: T2, Survivin–CRM1 complex (Homo sapiens, UniProt O15392); experiment: Pull-down with 293T lysate (Survivin142-HA), GST-CRM1 bait, RanQ69L, dGTP; format: binding
T2 construct: expressed in transfected cells; host or cells: 293T cells (Survivin142-HA); E. coli soluBL21 (GST-CRM1, RanQ69L)
Experimental: We next investigated whether tweezers inhibit the Survivin–CRM1 complex formation in vitro. The effects of the unmodified and peptide-linked tweezers were analyzed via pull-down experiments with 293T lysates containing overexpressed HA-tagged Survivin142, recombinant GST-CRM1 as bait protein, and tweezers (Fig. 6). The parent and ELTL-linked tweezer required 10–50 µM to disrupt the Survivin–CRM1 complex. […] In order to provide experimental evidence for the sequence selectivity of the TW-ELTLGEFL ligand, a scrambled analog was synthesized and clicked to the tweezer, resulting in the hybrid molecule TW-LFEEGLLT (SI1, SI2, and SI10). […] Instead, the slight chemical shift perturbations might be due to the spatial proximity of the peptide moiety to the anchoring residue. All those results strongly indicate that the additional binding energy from the NES interface was lost due to scrambling and thus point toward specific recognition as the reason for increased selectivity and interference with the Survivin–CRM1 interaction. Of note, very high tweezer concentrations (100–200 µM) also weakened GST-CRM1 binding to GSH-Sepharose beads, most likely by low-affinity binding to the GST protein.
(§3) All pull-down assays were performed at room temperature in pull-down buffer (PBS, pH 7.4, 1 mM DTT, 0.02 Triton X-100). GST fusion proteins were immobilized on 50 μL GSH-coated Sepharose 4B beads from GE Healthcare. The beads were prior equilibrated and blocked with 500 μL pull-down blocking buffer (PBS, pH 7.4, 1 (w/v) BSA, 1 mM DTT, 0.02 (v/v) Triton X-100) for 1 h to prevent unspecific binding.
For analysis of the effective inhibitory tweezer concentration, 200 μg 293T lysate with overexpressed Survivin142-HA was preincubated without ligand or with different concentrations (10 nM to 200 μM) of unmodified tweezer TW, TW-ELTL, TW-ELTLGEFL, or TW-LFEEGLLT for 1 h and then mixed with 35 μg GST-CRM1, 55 μg RanQ69L, and 2 mM dGTP. GSH-beads were incubated with this protein mixture for 2 h under rotation. […]
Samples of input and beads taken during pull-down experiments were ran on 12.5 SDS gels and transferred onto 0.2 µM PVDF membranes (Amersham Hybond P 0.2) using a PerfectBlue™ tank electro blotter (Peqlab) at 350 mA for 150 min. […] Chemiluminescence was detected and imaged using the Pierce ECL Plus Western Blotting Substrate kit (Thermo Fisher Scientific) and Chemidoc system (Bio-Rad) or film processor Cawomat 2000 IR (CAWO). Western blots were analyzed by densitometric analysis with ImageJ version 1.52p (U.S. National Institutes of Health), measuring the mean gray intensity of protein bands. […]

[3] = target: T3, Survivin120 (Homo sapiens, UniProt O15392); experiment: ITC titration of tweezers with Survivin120 wildtype; format: binding
T3 construct: the only published NMR structure originated from a truncated Survivin (aa 1-120) with improved solubility; GST with PreScission site (N); made in house; host or cells: Escherichia coli soluBL21
Experimental: The interaction between the tweezers and Survivin was studied by isothermal titration calorimetry (ITC) and NMR spectroscopy. So far, the only published NMR structure originated from a truncated Survivin (aa 1-120) with improved solubility. […] Since the truncated construct still contains all relevant parts of the protein and gives excellent NMR spectra (SI5), we chose it for all our in vitro experiments and denote it as Survivin120 in the following results.
as §1, §2

[4] = target: TW-ELTL-FAM (human); experiment: fluorescence polarisation; fluorescence anisotropy; 200 nM FAM-labeled tweezer titrated with Survivin120 (to 180 µM) or K90/103T (to 350 µM); PBS pH 7.4, 25 °C; single-site model
[5] = target: TW-ELTLGEFL-FAM (human); experiment: as above
[6] = target: TW-ELTL (asymmetrical molecular tweezer linked to the short peptide ELTL) (human); experiment: ITC; tweezer conjugate (100 µM) in the cell, Survivin120 (1.2 mM WT or 2.5 mM K90/103T) in the syringe; PBS pH 7.4, 25 °C; one set of sites model
[7] = target: TW-ELTLGEFL (asymmetrical molecular tweezer linked to the elongated peptide ELTLGEFL) (human); experiment: as above
[8] = target: T4, GST-Survivin120–CRM1 interaction (Homo sapiens, UniProt O15392); experiment: Pull-down with GST-Survivin120 wildtype bait, CRM1 and RanQ69L; format: binding
T4 construct: the only published NMR structure originated from a truncated Survivin (aa 1-120) with improved solubility; made in house; host or cells: Escherichia coli soluBL21
Experimental: (§4) Next, we investigated whether tweezer inhibition of the export complex assembly is compromised upon lysine mutations near the NES. Therefore, pull-down experiments were performed with recombinant GST-tagged Survivin120 wildtype and K90/103T as bait proteins, tweezers, recombinant CRM1 and RanQ69L (Fig. 7g). Controls lacking the Survivin baits were included, as well as isolated peptides without tweezer (Fig. 7h). […] However, for the double lysine mutant GST-Survivin120-K90/103T even the tweezer conjugates lost most of their inhibitory power toward the essential Survivin–CRM1 interaction.
as §3
(§5) For analysis of the effective inhibitory tweezer concentration, 200 μg 293T lysate with overexpressed Survivin142-HA was preincubated without ligand or with different concentrations (10 nM to 200 μM) of unmodified tweezer TW, TW-ELTL, TW-ELTLGEFL, or TW-LFEEGLLT for 1 h and then mixed with 35 μg GST-CRM1, 55 μg RanQ69L, and 2 mM dGTP. GSH-beads were incubated with this protein mixture for 2 h under rotation. For analysis of tweezer specificity, 40 μg GST-Survivin120 or GST-Survivin120-K90/103T point mutant was pre-bound to equilibrated GSH-beads in 500 μL pull-down buffer, containing additionally either no ligand or 50 μM unmodified tweezer TW, TW-ELTL, TW-ELTLGEFL, or peptides ELTL and ELTLGEFL, for 1 h under rotation. After washing and blocking, GSH-beads were incubated with a protein mixture consisting of 2 mM dGTP, 50 μg CRM1, and 50 μg RanQ69L for 2 h under rotation.
(§6) Samples of input and beads taken during pull-down experiments were ran on 12.5 SDS gels and transferred onto 0.2 µM PVDF membranes (Amersham Hybond P 0.2) using a PerfectBlue™ tank electro blotter (Peqlab) at 350 mA for 150 min. Membranes were blocked for 1 h using 5% milk powder in TBS buffer containing 0.1% Tween-20. Next, membranes were incubated in primary antibodies against HA (anti-HA, mouse monoclonal, BioLegend, Covance MMS-101R, 1:1,000), GST (anti-GST, mouse monoclonal, Santa Cruz Biotechnology Inc., sc-57753, 1:1000) or CRM1 (anti-CRM1, rabbit polyclonal, Novus Biologicals Ltd., NB100-79802, 1:10,000) overnight at 4 °C. Secondary horseradish peroxidase (HRP)-conjugated antibody (anti-mouse IgG-HRP, sheep, GE Healthcare, NXA931 or anti-rabbit IgG-HRP, donkey, GE Healthcare, NA934) was then added (1:10,000) for 1 h at room temperature. Chemiluminescence was detected and imaged using the Pierce ECL Plus Western Blotting Substrate kit (Thermo Fisher Scientific) and Chemidoc system (Bio-Rad) or film processor Cawomat 2000 IR (CAWO). Western blots were analyzed by densitometric analysis with ImageJ version 1.52p (U.S. National Institutes of Health), measuring the mean gray intensity of protein bands. Uncropped and unprocessed scans of western blots are deposited in the Source Data file.

[9] = target: T5, GST-Survivin120-K90/103T–CRM1 interaction (Homo sapiens, UniProt O15392, K103T/K90T); experiment: Pull-down with GST-Survivin120-K90/103T bait, CRM1 and RanQ69L; format: binding
T5 construct: the only published NMR structure originated from a truncated Survivin (aa 1-120) with improved solubility; made in house; host or cells: Escherichia coli soluBL21
Experimental: as §4, §3, §5, §6

[10] = CRM1 band, samples 22-28 (K90/103T)

T3 sequence (O15392 1-120): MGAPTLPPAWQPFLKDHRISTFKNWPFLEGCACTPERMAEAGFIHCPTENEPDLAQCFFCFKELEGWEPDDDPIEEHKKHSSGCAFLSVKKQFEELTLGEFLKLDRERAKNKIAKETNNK
T4 sequence (O15392 1-120): as above
T5 sequence (O15392 1-120 K90T/K103T): as the sequence (O15392 1-120) above, with K90T, K103T counted along it
T2 sequence (O15392 whole entry, one chain of several): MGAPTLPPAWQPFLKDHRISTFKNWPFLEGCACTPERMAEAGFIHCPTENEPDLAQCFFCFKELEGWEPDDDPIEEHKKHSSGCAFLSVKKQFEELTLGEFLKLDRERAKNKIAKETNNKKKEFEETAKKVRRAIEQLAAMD
T1 sequence (O15392 1-120 K90T/K103T): as the sequence (O15392 1-120) above, with K90T, K103T counted along it

CC(C)C[C@H](NC(=O)Cn1cc(CCOP(=O)(O)Oc2c3c(c(OP(=O)(O)O)c4c2C2CC4c4cc5c(cc42)C2CC5c4ccccc42)C2CC3c3cc4c(cc32)C2CC4c3ccccc32)nn1)C(=O)N[C@@H](Cc1ccccc1)C(=O)N[C@@H](CCC(=O)O)C(=O)N[C@@H](CCC(=O)O)C(=O)NCC(=O)N[C@@H](CC(C)C)C(=O)N[C@@H](CC(C)C)C(=O)N[C@H](C(=O)O)[C@@H](C)O [TW-LFEEGLLT] (HELM PEPTIDE1{[O=C(Cn1cc(CCOP(=O)(O)Oc2c3c(c(OP(=O)(O)O)c4c2C2CC4c4cc5c(cc42)C2CC5c4ccccc42)C2CC3c3cc4c(cc32)C2CC4c3ccccc32)nn1)[*:2]].L.F.E.E.G.L.L.T}$$$$V2.0)
Kd [1]: 55 ± 24 µM | ΔH ([1]; ITC, Survivin120 K90/103T): -1.4 kcal | effectiveness compared with TW-ELTLGEFL ([2]; pull-down analyses): about one order of magnitude less effective | concentration inhibiting the Survivin/CRM1 interaction efficiently ([2]; pull-down, concentrations between 1 and 50 µM (SI18)): > 50 µM | lower affinity toward wildtype protein compared with TW-ELTLGEFL ([3]; ITC KD ratio): ~ three | -TΔS ([3]; ITC, Survivin120 WT): -4.7 kcal | ΔG ([3]; ITC, Survivin120 WT): -5.7 kcal | ΔH ([3]; ITC, Survivin120 WT): -1.0 kcal | Kd ([3]; ITC, Survivin120 WT, PBS pH 7.4, 25 °C, one set of sites model, mean ± SEM of fit): 68 ± 22 µM

Survivin120 K90/103T (from UniProt O15392 1-120) (domain or fragment)
Kd [4]: 240 µM | Kd [5]: 92 µM | Kd [6]: 50 µM | stoichiometry N (ligand/protein) [6]: 1 | Kd [7]: 36 µM | stoichiometry N (ligand/protein) [7]: 1

ELTLGEFL peptide: isolated peptide ELTLGEFL without tweezer, pull-down control
CRM1: Peak area determined with ImageJ ([8]; CRM1 band, samples 15-21 (WT)): 27360.9 | CRM1 intensity_normalised on GST-Surv intensity (samples 1-14) ([8]; CRM1 band, samples 15-21 (WT)): 0.3991 | CRM1: Control w/o GST-Survivin subtracted (sample 16 or 23) ([8]; CRM1 band, samples 15-21 (WT), sample 16 subtracted): 22503.2 | GST-Surv: Peak area determined with ImageJ ([8]; GST-Surv bait band, samples 1-7 (WT according to the summary in r39-r41)): 57214.6 | GST-Surv: Control w/o GST-Survivin subtracted (sample 2 or 9) ([8]; GST-Surv bait band, samples 1-7 (WT), sample 2 subtracted): 56379.3 | Normalised CRM1 intensity, summary of replicates I and II ([8]; WT, w/o tweezer = 100, replicates I and II): 112.936% | CRM1 intensity_normalised on GST-Surv intensity (samples 1-14) and CRM1 intensity w/o incubation (sample 15 or 22) ([8]; samples 15-21 (WT), fraction of sample 15 (w/o Tweezer)): 1.129 | CRM1 intensity_normalised on GST-Surv intensity (samples 1-14) and CRM1 intensity w/o incubation (sample 15 or 22) ([8]; samples 15-21 (WT), w/o Tweezer = 100): 112.936% | CRM1: Peak area determined with ImageJ [9, 10]: 38827.8 | CRM1 intensity_normalised on GST-Surv intensity (samples 1-14) [9, 10]: 0.485 | CRM1: Control w/o GST-Survivin subtracted (sample 16 or 23) ([9]; CRM1 band, samples 22-28 (K90/103T), sample 23 subtracted): 34118.6 | GST-Surv: Peak area determined with ImageJ ([9]; GST-Surv bait band, samples 8-14 (K90/103T according to the summary in r39-r41)): 72953.9 | GST-Surv: Control w/o GST-Survivin subtracted (sample 2 or 9) ([9]; GST-Surv bait band, samples 8-14 (K90/103T), sample 9 subtracted): 70354.7 | Normalised CRM1 intensity, summary of replicates I and II ([9]; K90/103T, w/o tweezer = 100, replicates I and II): 76.5436% | CRM1 intensity_normalised on GST-Surv intensity (samples 1-14) and CRM1 intensity w/o incubation (sample 15 or 22) ([9]; samples 22-28 (K90/103T), fraction of sample 22 (w/o tweezer)): 0.7654 | CRM1 intensity_normalised on GST-Surv intensity (samples 1-14) and CRM1 intensity w/o incubation (sample 15 or 22) ([9]; samples 22-28 (K90/103T), w/o tweezer = 100): 76.5436%
